Assay [1] deals with T1, human BTLA expressed on CHO cells (human, UniProt Q7Z6A9 31-289).
T1 construct: also called CHO/huBTLA; hBTLA
As to the kind of experiment: flow cytometry, antibody titrated on CHO cells expressing human BTLA, PE-anti-huFc detection, FL2 GMFI.

The next assay deals with T2, cynomolgus BTLA (cynomolgus, UniProt A0A2K5W7M7 31-289).
T2 construct: whole, on cells; also called cyno BTLA; monkey BTLA
T2 sequence: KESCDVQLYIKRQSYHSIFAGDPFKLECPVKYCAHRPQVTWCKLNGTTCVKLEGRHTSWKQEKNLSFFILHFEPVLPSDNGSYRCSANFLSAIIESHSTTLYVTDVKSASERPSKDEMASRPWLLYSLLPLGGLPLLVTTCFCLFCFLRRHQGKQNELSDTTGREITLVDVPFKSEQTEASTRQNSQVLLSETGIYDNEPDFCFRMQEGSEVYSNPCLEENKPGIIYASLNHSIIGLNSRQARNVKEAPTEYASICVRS
As to the kind of experiment: flow cytometry, antibody titrated on CHO cells expressing cynomolgus BTLA, PE-anti-huFc detection, FL2 GMFI. Background: Flow cytometry measures light scatter and fluorescence of single cells or particles in a stream.

T1 sequence (Q7Z6A9 other isoform, or with tags, fused parts or gaps limits assumed): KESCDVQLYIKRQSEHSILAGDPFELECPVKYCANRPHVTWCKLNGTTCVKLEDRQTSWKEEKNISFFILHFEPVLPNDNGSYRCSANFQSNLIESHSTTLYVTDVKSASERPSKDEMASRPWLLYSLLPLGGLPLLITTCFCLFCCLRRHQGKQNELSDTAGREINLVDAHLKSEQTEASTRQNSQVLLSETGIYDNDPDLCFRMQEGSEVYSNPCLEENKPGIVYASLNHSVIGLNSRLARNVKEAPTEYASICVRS

B1: hu Mab8D5 (IgG4 version, fully human monoclonal agonist anti-BTLA antibody) (antibody, V domains shown, not shown: a dimerising Fc or GST)
VH: EVQLVESGGGLVQPGGSLRLSCAASGFTISSYDMHWVRQATGKGLEWVSVIGPAGDTYYPGSVKGRFTISRENAKNSLYLQMNSLRAGDTAVYYCAREGMAAHNYYGMDVWGQGTTVTVSS
VL: not shown
notes: also called hu Mab8D5 G4; 8D5 (G4) agonist
By EC50 is commonly meant the concentration needed to bring the measured effect to its halfway point. Read a low EC50 as an effect from little substance. B1: the EC50 worked out at 0.0124 µM in assay [1] and 0.0136 µM in the assay with cynomolgus BTLA.

(Values after patent US20140017255A1 (E R SQUIBB AND SONS L L C, published 2014).)
